Reference: publication PMC6294510
Where two headings read alike, the source gives them in different places.

Tests used:
[1] = molecular target: T1, ARTD2FL WT (Homo sapiens, UniProt Q9UGN5 1-583); assay: EMSA
[2] = molecular target: T2, ARTD2WGR (Homo sapiens, UniProt Q9UGN5 90-218); assay: X-ray crystallography
[3] = molecular target: T2, ARTD2WGR; assay: X-ray crystallography; remark: listed apart in the source
[4] = molecular target: T1, ARTD2FL WT; assay: ITC
[5] = molecular target: T3, ARTD2WGR+CAT (Homo sapiens, UniProt Q9UGN5 90-583); assay: SEC-SLS
[6] = molecular target: T1, ARTD2FL WT; assay: SEC-SLS
[7] = molecular target: T3, ARTD2WGR+CAT; assay: SEC-SLS; remark: listed apart in the source
[8] = molecular target: T2, ARTD2WGR; assay: X-ray crystallography; remark: listed apart in the source
[9] = molecular target: ARTD2FL N127A (Homo sapiens, UniProt Q9UGN5 1-583, N127A); assay: SPR
[10] = molecular target: ARTD2FL K179A (Homo sapiens, UniProt Q9UGN5 1-583, K179A); assay: SPR
[11] = molecular target: ARTD2FL Y201F (Homo sapiens, UniProt Q9UGN5 1-583, Y201F); assay: SPR
[12] = molecular target: ARTD2FL R153A (Homo sapiens, UniProt Q9UGN5 1-583, R153A); assay: SPR
[13] = molecular target: ARTD2FL W151A (Homo sapiens, UniProt Q9UGN5 1-583, W151A); assay: SPR
[14] = molecular target: ARTD2FL K183A (Homo sapiens, UniProt Q9UGN5 1-583, K183A); assay: SPR
Sequence of ARTD2FL K183A (Q9UGN5 whole entry K183A): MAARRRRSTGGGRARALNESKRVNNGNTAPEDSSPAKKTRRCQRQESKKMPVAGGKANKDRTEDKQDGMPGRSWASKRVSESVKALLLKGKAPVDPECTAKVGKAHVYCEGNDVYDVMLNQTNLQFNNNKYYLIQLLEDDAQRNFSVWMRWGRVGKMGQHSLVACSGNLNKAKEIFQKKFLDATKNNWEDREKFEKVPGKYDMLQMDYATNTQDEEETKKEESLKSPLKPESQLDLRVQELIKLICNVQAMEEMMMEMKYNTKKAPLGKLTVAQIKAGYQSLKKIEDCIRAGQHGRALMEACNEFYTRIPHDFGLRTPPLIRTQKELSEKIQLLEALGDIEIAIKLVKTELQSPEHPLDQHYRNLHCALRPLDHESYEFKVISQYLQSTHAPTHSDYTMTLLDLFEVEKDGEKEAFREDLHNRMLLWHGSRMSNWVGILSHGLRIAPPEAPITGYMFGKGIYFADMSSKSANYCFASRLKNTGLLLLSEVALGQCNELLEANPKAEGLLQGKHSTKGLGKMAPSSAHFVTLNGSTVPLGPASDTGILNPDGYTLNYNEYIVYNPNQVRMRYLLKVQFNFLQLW

T2 sequence (Q9UGN5 90-218): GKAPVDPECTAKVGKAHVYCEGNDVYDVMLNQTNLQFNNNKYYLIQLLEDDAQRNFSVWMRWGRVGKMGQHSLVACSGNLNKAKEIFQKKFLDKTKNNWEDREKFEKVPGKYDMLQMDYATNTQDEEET
T1 sequence (Q9UGN5 whole entry): as the sequence (Q9UGN5 whole entry K183A) above, with A183K counted along it
T3 sequence (Q9UGN5 90-583): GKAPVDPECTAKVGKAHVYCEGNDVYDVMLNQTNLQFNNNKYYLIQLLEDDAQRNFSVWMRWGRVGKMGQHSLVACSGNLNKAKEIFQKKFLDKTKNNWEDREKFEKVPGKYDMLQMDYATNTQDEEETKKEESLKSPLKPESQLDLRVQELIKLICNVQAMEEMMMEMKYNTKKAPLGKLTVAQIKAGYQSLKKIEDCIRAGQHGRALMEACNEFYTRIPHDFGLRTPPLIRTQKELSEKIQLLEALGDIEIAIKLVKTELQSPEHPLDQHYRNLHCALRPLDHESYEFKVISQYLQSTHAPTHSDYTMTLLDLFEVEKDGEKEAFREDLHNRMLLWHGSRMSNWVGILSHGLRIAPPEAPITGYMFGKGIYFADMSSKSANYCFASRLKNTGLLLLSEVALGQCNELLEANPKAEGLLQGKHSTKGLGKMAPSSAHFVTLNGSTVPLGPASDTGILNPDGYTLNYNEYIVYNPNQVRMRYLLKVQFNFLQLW
Sequence of ARTD2FL Y201F (Q9UGN5 whole entry Y201F): as the sequence (Q9UGN5 whole entry K183A) above, with A183K, Y201F counted along it
Sequence of ARTD2FL W151A (Q9UGN5 whole entry W151A): as the sequence (Q9UGN5 whole entry K183A) above, with W151A, A183K counted along it
Sequence of ARTD2FL N127A (Q9UGN5 whole entry N127A): as the sequence (Q9UGN5 whole entry K183A) above, with N127A, A183K counted along it
Sequence of ARTD2FL R153A (Q9UGN5 whole entry R153A): as the sequence (Q9UGN5 whole entry K183A) above, with R153A, A183K counted along it
Sequence of ARTD2FL K179A (Q9UGN5 whole entry K179A): as the sequence (Q9UGN5 whole entry K183A) above, with K179A, A183K counted along it

B1: DNA-2 nicked dumbbell (structured_DNA)
DNA: GGAAGTTCTTTTGAACTTCCGCGAAGCTTTTGCTTCGC
modifications: 5'-phosphate
**Q.** Does B1 bind [1]?
**A.** binds

B2: DNA-6 (dsDNA)
DNA 1: GCCTAGCTACGTAGCTAGGC
DNA 2: GCCTAGCTACGTAGCTAGGC
**Q.** Does B2 bind [2]?
**A.** binds

B3: DNA-5 (dsDNA)
DNA 1: GCCTATAGGC
DNA 2: GCCTATAGGC
modifications: 5'-phosphate on both strands
**Q.** Does B3 bind [3]?
**A.** binds

B4: DNA-3 blunt hairpin (structured_DNA)
DNA: GGAAGTTCTTTTGAACTTCC
**Q.** Does B4 bind [4]?
**A.** binds

B5: DNA-1 nicked hairpin (structured_DNA)
DNA: GGGTCTTTTGACCCTCGAGCTTTTGCTCGA
modifications: 5'-phosphate
**Q.** Which results are given for B5?
**A.** binding result [4]: binds; binding result [5]: binds

B6: DNA-13 (dsDNA)
DNA 1: GACGCAACCCGGAGAACACA
DNA 2: TGTGTTCTCCGGGTTGCGTC
modifications: 5'-phosphate on forward strand
**Q.** Does B6 bind [6]?
**A.** binds

**Q.** Does B6 bind [7]?
**A.** binds

B7: DNA-9 (dsDNA)
DNA 1: CGGTCGCCTATAGGC
DNA 2: CGGTCGCCTATAGGC
modifications: 5'-phosphate on both strands
**Q.** Does B7 bind [8]?
**A.** binds

B8: DNA-12 (dsDNA)
DNA 1: GCAGCATGGCGGAGTTCACA
DNA 2: TGTGAACTCCGCCATGCTGC
modifications: 5'-phosphate on forward strand
**Q.** Does B8 bind [9]?
**A.** no binding

**Q.** Does B8 bind [10]?
**A.** no binding

**Q.** Does B8 bind [11]?
**A.** no binding

**Q.** Does B8 bind [12]?
**A.** no binding

**Q.** Does B8 bind [13]?
**A.** no binding

**Q.** Does B8 bind [14]?
**A.** no binding
